The values that follow come from US20220119513A1 (ZOETIS SERVICES, published 2022).

One assay addresses T1, TGFβ3 (R&D Systems) (Homo sapiens (Human), UniProt P10600 301-412, Active TGFβ3 is a disulfide-linked homodimer of this chain; one copy is given.).
T1 construct: also called TGFB3
T1 sequence: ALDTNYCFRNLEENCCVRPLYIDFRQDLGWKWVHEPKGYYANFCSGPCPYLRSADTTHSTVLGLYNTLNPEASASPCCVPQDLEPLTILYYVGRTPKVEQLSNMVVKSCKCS
Put plainly: SPR. In general terms: In SPR one partner is held on a chip, and binding of the other changes the refractive index at the surface.

For assay [1], the target named is T2, TGFβ1 (R&D Systems).
T2 construct: also called TGFB1
T2 sequence (P01137 279-390): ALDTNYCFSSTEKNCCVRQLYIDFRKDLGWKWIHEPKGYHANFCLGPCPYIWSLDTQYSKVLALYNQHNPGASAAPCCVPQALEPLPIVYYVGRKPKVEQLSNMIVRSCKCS
Put plainly: SPR full titration.

In assay [2] the target is T2, TGFβ1 (R&D Systems). Put plainly: cell-based or functional assay.
In assay [3] the target is T2, TGFβ1 (R&D Systems). In words: single point SPR.
Assay [4] concerns the target T2, TGFβ1 (R&D Systems). In words: SPR full titration. The source holds these as a separate data set.

Residue numbers refer to the chain shown, from its start. Numbers in names are those of the source.

B1: felHclb_heterochimera-14 (antibody, V domains shown)
VH: QVLLVQSGAEVRTPGASVKIFCKASGYIFITYYMHWVRQSPAQGLEWMGQIFPASGSTNYNEMFEGRLTLTADTSTNTAYMELSSLRSADTAMYYCARGDGNYALDAMDYWGQGTSVTVSS
VL: DIVLTQTPASLAVSLGQRATISCRASESVDSYGNSFMHWYQQKSGQPPKLLIYLASNLESGVPARFSGSGSRTDFTLTIDPVEADDAATYYCQQNNEDPLTFGAGTK
notes: hetero-pairing; also called felHclbH1-1x/mHclbVL
For B1, the binding result with TGFβ3 (R&D Systems) is reported as “no binding”.

B2: felHclb_heterochimera-11 (antibody, V domains shown)
VH: QVLLVQSGAEVRRPGASVKIFCKASGYIFITYYMHWLRQAPAQGFEWMGSIFPASGSTSYAQKFQGRLTLTADTSTDTAYMELSSLRSADTAVYYCARGDGNYALDAMDYWGHGTIVTVSS
VL: B1 VL
notes: hetero-pairing; also called felHclbH636/mHclbVL
Turning to B2, in the assay with TGFβ3 (R&D Systems), the binding result is on record as “no binding”.

B3: felHclb_heterochimera-4 (antibody, V domains shown)
VH: B1 VH
VL: DIVMTQTPPSLSVSPRETASISCRASESVDSYGNSFMHWYLQKPGQSPQLLIYLASNLESGVSDRFSGSGSGTDFTLRISRVEANDTGVYYCQQNNEDPLTFGQ
notes: hetero-pairing
B3: in the assay with TGFβ3 (R&D Systems), the binding result is listed as “no binding”.

B4: felHclb_heterochimera-15 (antibody, V domains shown)
VH: B2 VH with R13K, I28T, A42E, F45L, S50R, D77N, V93M, H113Q, T115A, I116L
VL: B1 VL
notes: hetero-pairing; also called felHclbH618s/mHclbVL
As to B4, the binding result with TGFβ3 (R&D Systems) is given as “no binding”.

B5: felHclb_heterochimera-16 (antibody, V domains shown)
VH: B1 VH with T13K, I28T, V37L, S40A, A42E, T115A, S116L
VL: B1 VL
notes: hetero-pairing; also called felHclbH618x/mHclbVL
B5: the binding result in the assay with TGFβ3 (R&D Systems) is “no binding”.

B6: felHclb_heterochimera-2 (antibody, V domains shown)
VH: B1 VH with Q50S, N59S, N61A, E62Q, M63K, E65Q
VL: B3 VL
notes: hetero-pairing
Regarding B6, the binding result in the assay with TGFβ3 (R&D Systems) is “no binding”.

B7: felHclb_heterochimera-13 (antibody, V domains shown)
VH: B2 VH with S50Q, S59N, A61N, Q62E, K63M, Q65E
VL: B1 VL
notes: hetero-pairing; also called felHclbH636x/mHclbVL
Take B7: in the assay with TGFβ3 (R&D Systems), the binding result is given as “no binding”.

B8: felHclb_heterochimera-12 (antibody, V domains shown)
VH: B1 VH with Q50S, N59S, N61A, E62Q, M63K, E65Q
VL: B1 VL
notes: hetero-pairing; also called felHclbH1-1/mHclbVL
Consider B8, for which the binding result in the assay with TGFβ3 (R&D Systems) is listed as “no binding”.

B9: felHclb_heterochimera-1 (antibody, V domains shown)
VH: B2 VH
VL: B3 VL
notes: hetero-pairing
For B9, the binding result with TGFβ3 (R&D Systems) is “no binding”.

B10: felHclb_heterochimera-5 (antibody, V domains shown)
VH: B2 VH with R13K, I28T, A42E, F45L, S50R, D77N, V93M, H113Q, T115A, I116L
VL: B3 VL
notes: hetero-pairing
Consider B10, for which the binding result in the assay with TGFβ3 (R&D Systems) is “no binding”.

B11: Can-SL501-VH3 D108K / Can-SL501-VL2 (antibody, V domains shown)
VH: EVQLVESGGDLVKPGGSLRLSCVASGFTFSSYGMHWVRQAPGKELEWVAVISYDGSIKYYADAVKGRFTISRDNAKNTLYLQMNSLRAEDTAVYYCARTGEYSGYDTKPQYSWGQGTTVTVSS
VL: EIVMTQSPGSLAGSAGESVSINCRASQGIGDDLGWYQQKPGERPKLLIYGTSTLQSGVPARFSSSGSGTDFTLTINNLQAEDVGDYYCLQDSNYPLTFGAGTK
The Kd is the constant that tells how readily two partners part at equilibrium. Turning to B11, the Kd with TGFβ1 (R&D Systems) [1] came out at 0.0346 nM; with TGFβ1 (R&D Systems) [3], 0.283 nM. Moreover, the “CMVIC pSmad-3, IC50” value in the assay with TGFβ1 (R&D Systems) [2] is 10.9 nM.

B12: Chimera-SL501-VH/Can-SL501-VL1 (antibody, V domains shown)
VH: B11 VH with D10G, L11V, K13Q, G16R, V23A, A63S, A75S, K108D
VL: EIVMTQSPASLSLSQEEKVTITCRASQGIGDDLGWYQQKPGQAPKLLIYGTSTLQSGVPSRFSGSGSGTDFSFTISSLEPEDVAVYYCLQDSNYPLTFGAGTK
notes: also called heterochimeric SL501
Molecule B12 registered a Kd with TGFβ1 (R&D Systems) [4] of 60.8 nM. That is a double-digit nanomolar value.

B13: Can-SL501-VH3 Q110E / Can-SL501-VL2 (antibody, V domains shown)
VH: B11 VH with K108D, Q110E
VL: B11 VL
With B13, the Kd in the assay with TGFβ1 (R&D Systems) [1] was 0.0657 nM; with TGFβ1 (R&D Systems) [3], 13.5 nM. Besides, the “CMVIC pSmad-3, IC50” value with TGFβ1 (R&D Systems) [2] worked out at 6.65 nM.

B14: Can-SL501-VH3 Q110D / Can-SL501-VL2 (antibody, V domains shown)
VH: B11 VH with K108D, Q110D
VL: B11 VL
B14: the Kd was 0.0503 nM with TGFβ1 (R&D Systems) [1] and 8.01 nM in the assay with TGFβ1 (R&D Systems) [3]. Further, the “CMVIC pSmad-3, IC50” value with TGFβ1 (R&D Systems) [2] amounted to 4.83 nM.

B15: Can-SL501-VH3 Y111I / Can-SL501-VL2 (antibody, V domains shown)
VH: B11 VH with K108D, Y111I
VL: B11 VL
Turning to B15, the Kd with TGFβ1 (R&D Systems) [1] was determined as 0.0308 nM; with TGFβ1 (R&D Systems) [3], 0.562 nM. The “CMVIC pSmad-3, IC50” value with TGFβ1 (R&D Systems) [2] was 50.2 nM.

B16: Can-SL501-VH3 S112D / Can-SL501-VL2 (antibody, V domains shown)
VH: B11 VH with K108D, S112D
VL: B11 VL
As to B16, the Kd is 0.0196 nM in the assay with TGFβ1 (R&D Systems) [1] and 7 nM with TGFβ1 (R&D Systems) [3]. Also, in the assay with TGFβ1 (R&D Systems) [2], the “CMVIC pSmad-3, IC50” value is 8.78 nM.

B17: Can-SL501_VH2/Chimera-SL501-VL (antibody, V domains shown)
VH: B11 VH with E44G, E46Q, V93M, R98K, K108D, T118L
VL: EIVLTQSPSSLSASVGDRVTITCRASQGIGDDLGWYQQKPGKAPILLIYGTSTLQSGVPSRFSGSGSGTDFTLTINSLQPEDFATYYCLQDSNYPLTFGGGTK
notes: as for B12
Turning to B17, binding with TGFβ1 (R&D Systems) [4] was put at a Kd of 1090 nM.

B18: Can-SL501-VH3 Q110K / Can-SL501-VL2 (antibody, V domains shown)
VH: B11 VH with K108D, Q110K
VL: B11 VL
B18: the Kd in the assay with TGFβ1 (R&D Systems) [1] is 0.111 nM; with TGFβ1 (R&D Systems) [3], 5.11 nM. Besides, in the assay with TGFβ1 (R&D Systems) [2], the “CMVIC pSmad-3, IC50” value is 30.5 nM.

B19: Can-SL501-VH3 Y111L / Can-SL501-VL2 (antibody, V domains shown)
VH: B11 VH with K108D, Y111L
VL: B11 VL
For B19, in the assay with TGFβ1 (R&D Systems) [2], the “CMVIC pSmad-3, IC50” value was determined as 32.6 nM. Moreover, the Kd with TGFβ1 (R&D Systems) [3] amounted to 1.11 nM.

B20: mouse SL501 (antibody, V domains shown)
VH: B11 VH with D10G, L11V, K13Q, G16R, V23A, A63S, A75S, K108D
VL: B17 VL
notes: called engineered mouse antibody and also precursor human antibody from phage display; also called mouse-SL501-VH/mouse-SL501-VL; SL501 (murine)
In turn, B20 gave a Kd with TGFβ1 (R&D Systems) [4] of 0.00705 nM.

B21: Can-SL501-VH1/Chimera-SL501-VL (antibody, V domains shown)
VH: B11 VH with E44G, E46Q, A61T, K76R, L79V, R98K, K108D, T118L
VL: B17 VL
notes: as for B12
Turning to B21, the Kd in the assay with TGFβ1 (R&D Systems) [4] worked out at 1100 nM.

B22: Can-SL501-VH3 D108R / Can-SL501-VL2 (antibody, V domains shown)
VH: B11 VH with K108R
VL: B11 VL
Turning to B22, the dissociation constant (Kd) with TGFβ1 (R&D Systems) [1] amounted to 0.0651 nM; with TGFβ1 (R&D Systems) [3] it was 0.759 nM. The “CMVIC pSmad-3, IC50” value in the assay with TGFβ1 (R&D Systems) [2] was 25.2 nM.

B23: Can-SL501-VH3 Y111T / Can-SL501-VL2 (antibody, V domains shown)
VH: B11 VH with K108D, Y111T
VL: B11 VL
As to B23, the Kd worked out at 0.0235 nM with TGFβ1 (R&D Systems) [1] and 0.457 nM with TGFβ1 (R&D Systems) [3]. Further, in the assay with TGFβ1 (R&D Systems) [2], the “CMVIC pSmad-3, IC50” value came to 19.6 nM.

B24: Can-SL501-VH3 Y111F / Can-SL501-VL2 (antibody, V domains shown)
VH: B11 VH with K108D, Y111F
VL: B11 VL
With B24, the Kd with TGFβ1 (R&D Systems) [1] was determined as 0.065 nM; with TGFβ1 (R&D Systems) [3], 8.04 nM. For the same molecule, in the assay with TGFβ1 (R&D Systems) [2], the “CMVIC pSmad-3, IC50” value is 43.3 nM.

B25: Can-SL501-VH3 S112Q / Can-SL501-VL2 (antibody, V domains shown)
VH: B11 VH with K108D, S112Q
VL: B11 VL
For B25, the Kd with TGFβ1 (R&D Systems) [1] is 0.00909 nM; in the assay with TGFβ1 (R&D Systems) [3] it was 4.8 nM. Moreover, the “CMVIC pSmad-3, IC50” value with TGFβ1 (R&D Systems) [2] turned out to be 5.02 nM.

B26: Can-SL501-VH3 Y111E / Can-SL501-VL2 (antibody, V domains shown)
VH: B11 VH with K108D, Y111E
VL: B11 VL
Turning to B26, the Kd with TGFβ1 (R&D Systems) [1] is 0.0238 nM; with TGFβ1 (R&D Systems) [3], 4.98 nM. Besides, the “CMVIC pSmad-3, IC50” value in the assay with TGFβ1 (R&D Systems) [2] was determined as 46.9 nM.

B27: Can-SL501-VH3 S112E / Can-SL501-VL2 (antibody, V domains shown)
VH: B11 VH with K108D, S112E
VL: B11 VL
On to B27, for which the figures for the Kd with TGFβ1 (R&D Systems) [1] and with TGFβ1 (R&D Systems) [3] were 0.0153 nM and 0.487 nM, respectively. In addition, the “CMVIC pSmad-3, IC50” value with TGFβ1 (R&D Systems) [2] is 5.03 nM.

B28: Can-SL501-VH3 P109A / Can-SL501-VL2 (antibody, V domains shown)
VH: B11 VH with K108D, P109A
VL: B11 VL
For the molecule B28, the Kd with TGFβ1 (R&D Systems) [1] turned out to be 0.135 nM; with TGFβ1 (R&D Systems) [3], 1.1 nM. Moreover, the “CMVIC pSmad-3, IC50” value in the assay with TGFβ1 (R&D Systems) [2] worked out at 20.8 nM.

B29: Can-SL501-VH3 P109T / Can-SL501-VL2 (antibody, V domains shown)
VH: B11 VH with K108D, P109T
VL: B11 VL
As for B29, the results for the Kd with TGFβ1 (R&D Systems) [1] and with TGFβ1 (R&D Systems) [3] were 0.0836 nM and 0.752 nM, respectively. For the same molecule, the “CMVIC pSmad-3, IC50” value with TGFβ1 (R&D Systems) [2] is 30 nM.

B30: Can-SL501-VH3 Q110N / Can-SL501-VL2 (antibody, V domains shown)
VH: B11 VH with K108D, Q110N
VL: B11 VL
For the molecule B30, the values for the Kd in the assay with TGFβ1 (R&D Systems) [1] and with TGFβ1 (R&D Systems) [3] were 0.0809 nM and 5.64 nM, respectively. Moreover, in the assay with TGFβ1 (R&D Systems) [2], the “CMVIC pSmad-3, IC50” value was determined as 8.95 nM.
